Target: T1, DENR (in DENR-MCTS1 complex, coexpressed);MCTS1 (in DENR-MCTS1 complex, coexpressed) (human;human) (UniProt O43583+Q9ULC4)
T1 sequence 1: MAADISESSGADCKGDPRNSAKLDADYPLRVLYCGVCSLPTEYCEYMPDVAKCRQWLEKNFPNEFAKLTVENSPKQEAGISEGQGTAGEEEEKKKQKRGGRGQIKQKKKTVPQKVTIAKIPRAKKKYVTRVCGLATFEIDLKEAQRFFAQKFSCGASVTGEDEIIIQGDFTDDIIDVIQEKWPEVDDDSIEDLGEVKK
T1 sequence 2: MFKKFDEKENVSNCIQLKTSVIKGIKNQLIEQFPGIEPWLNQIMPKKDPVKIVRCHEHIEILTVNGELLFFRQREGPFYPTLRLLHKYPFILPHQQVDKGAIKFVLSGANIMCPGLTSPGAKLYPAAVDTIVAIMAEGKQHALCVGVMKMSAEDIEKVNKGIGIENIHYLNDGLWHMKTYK
Experiment: EMSA
Details: Scatchard, 5 replicates; general value, per-tRNA Kd only in S3E' Fig; 50 mM Tris pH 7.5, 150 mM NaCl, 15 mM imidazole (protein eluted in 300 mM imidazole, 2 mM DTT added), protein 0.25-16 uM, RNA 1 uM (3 uM yeast tRNA mix), 30 min

**Q.** Which Kd does the source give for tRNA, species not specified in text here?
**A.** 1500 nM

From publication PMC6013234
